T1: Trypsin inhibitor type 1-S from Glycine max (Glycine max, UniProt P01070 25-205)
T1 construct: Amine coupled to a CM5 chip
T1 sequence (looked up): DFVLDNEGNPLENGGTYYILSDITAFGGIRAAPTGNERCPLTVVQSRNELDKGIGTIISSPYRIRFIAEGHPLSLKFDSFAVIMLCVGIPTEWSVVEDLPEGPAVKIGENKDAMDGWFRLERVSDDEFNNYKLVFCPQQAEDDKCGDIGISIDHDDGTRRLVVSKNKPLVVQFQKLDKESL

B1: 900792 chimera (antibody, human IgG1, kappa, L234A L235A, V domains shown)
VH: QVQLQQSGAELVRPGTSVKVSCKASGYAFTNYLIEWVKQRPGQGLEWIGVINPESGDTYYSEKFKGKATLTADKSSSTAYMQLSSLTSEDSAVYFCAKESLTGSSYDYWGQGTTLTVSS
VL: DIQMTQSPASLSASVGESVTITCRASENIYSNLVWYQQKQGKSPQLLVYGARNLADGVPSRFSGSGSGTQFSLKINSLQPEDFGNYYCQHFYETPLTFGTGTKLEIKR
notes: Human-mouse chimera of clone 77E6; human IgG1 constant region with L234A and L235A (Eu), human kappa
B2: 900792-huH2L2 (antibody, human IgG1, kappa, L234A L235A, V domains shown)
VH: QVQLVQSGAEVKKPGASVKVSCKASGYAFTNYLIEWVRQAPGQGLEWMGIINPESGDTYYAQKFQGRVTMTADKSTSTAYMELSSLRSEDSAVYFCAKESLTGSSYDYWGQGTTLTVSS
VL: DIQMTQSPSSLSASVGDRVTITCRASENIYSNLVWYQQKPGKAPQLLVYGARNLQSGVPSRFSGSGSGTQFSLTISSLQPEDFATYYCQHFYETPLTFGTGTKLEIKR
notes: Humanized
B3: 900792-huH2L1 (antibody, human IgG1, kappa, L234A L235A, V domains shown)
VH: QVQLVQSGAEVKKPGASVKVSCKASGYAFTNYLIEWVRQAPGQGLEWMGIINPESGDTYYAQKFQGRVTMTADKSTSTAYMELSSLRSEDSAVYFCAKESLTGSSYDYWGQGTTLTVSS
VL: DIQMTQSPSSLSASVGDRVTITCRASENIYSNLVWYQQKPGKAPQLLVYGARNLADGVPSRFSGSGSGTQFSLTISSLQPEDFATYYCQHFYETPLTFGTGTKLEIKR
notes: Humanized
B4: 900792-huH2L3 (antibody, human IgG1, kappa, L234A L235A, V domains shown)
VH: QVQLVQSGAEVKKPGASVKVSCKASGYAFTNYLIEWVRQAPGQGLEWMGIINPESGDTYYAQKFQGRVTMTADKSTSTAYMELSSLRSEDSAVYFCAKESLTGSSYDYWGQGTTLTVSS
VL: DIQMTQSPSSLSASVGDRVTITCRASENIYSNLVWYQQKPGKAPQLLIYGARNLQSGVPSRFSGSGSGTQFTLTISSLQPEDFATYYCQHFYETPLTFGTGTKLEIKR
notes: Humanized
B5: 900792-huH1L3 (antibody, human IgG1, kappa, L234A L235A, V domains shown)
VH: QVQLQQSGAEVKKPGASVKVSCKASGYAFTNYLIEWVRQAPGQGLEWIGVINPESGDTYYSEKFQGRVTLTADKSTSTAYMELSSLRSEDSAVYFCAKESLTGSSYDYWGQGTTLTVSS
VL: DIQMTQSPSSLSASVGDRVTITCRASENIYSNLVWYQQKPGKAPQLLIYGARNLQSGVPSRFSGSGSGTQFTLTISSLQPEDFATYYCQHFYETPLTFGTGTKLEIKR
notes: Humanized
B6: 900792-huH3L3 (antibody, human IgG1, kappa, L234A L235A, V domains shown)
VH: QVQLQQSGAEVKKPGASVKVSCKASGYAFTNYLIEWVRQAPGQGLEWMGVINPESGDTYYSQKFQGRVTMTADKSTSTAYMELSSLRSEDSAVYFCAKESLTGSSYDYWGQGTTLTVSS
VL: DIQMTQSPSSLSASVGDRVTITCRASENIYSNLVWYQQKPGKAPQLLIYGARNLQSGVPSRFSGSGSGTQFTLTISSLQPEDFATYYCQHFYETPLTFGTGTKLEIKR
notes: Humanized
B7: 900792-huH4L1 (antibody, human IgG1, kappa, L234A L235A, V domains shown)
VH: QVQLVQSGAEVKKPGASVKVSCKASGYAFTNYLIEWVRQAPGQGLEWMGIINPESGDTYYAQKFQGRVTLTADKSTSTAYMELSSLRSEDSAVYYCAKESLTGSSYDYWGQGTTLTVSS
VL: DIQMTQSPSSLSASVGDRVTITCRASENIYSNLVWYQQKPGKAPQLLVYGARNLADGVPSRFSGSGSGTQFSLTISSLQPEDFATYYCQHFYETPLTFGTGTKLEIKR
notes: Humanized
B8: 900792-huH3L2 (antibody, human IgG1, kappa, L234A L235A, V domains shown)
VH: QVQLQQSGAEVKKPGASVKVSCKASGYAFTNYLIEWVRQAPGQGLEWMGVINPESGDTYYSQKFQGRVTMTADKSTSTAYMELSSLRSEDSAVYFCAKESLTGSSYDYWGQGTTLTVSS
VL: DIQMTQSPSSLSASVGDRVTITCRASENIYSNLVWYQQKPGKAPQLLVYGARNLQSGVPSRFSGSGSGTQFSLTISSLQPEDFATYYCQHFYETPLTFGTGTKLEIKR
notes: Humanized
B9: 900792-huH1L1 (antibody, human IgG1, kappa, L234A L235A, V domains shown)
VH: QVQLQQSGAEVKKPGASVKVSCKASGYAFTNYLIEWVRQAPGQGLEWIGVINPESGDTYYSEKFQGRVTLTADKSTSTAYMELSSLRSEDSAVYFCAKESLTGSSYDYWGQGTTLTVSS
VL: DIQMTQSPSSLSASVGDRVTITCRASENIYSNLVWYQQKPGKAPQLLVYGARNLADGVPSRFSGSGSGTQFSLTISSLQPEDFATYYCQHFYETPLTFGTGTKLEIKR
notes: Humanized
B10: 900792-huH1L2 (antibody, human IgG1, kappa, L234A L235A, V domains shown)
VH: QVQLQQSGAEVKKPGASVKVSCKASGYAFTNYLIEWVRQAPGQGLEWIGVINPESGDTYYSEKFQGRVTLTADKSTSTAYMELSSLRSEDSAVYFCAKESLTGSSYDYWGQGTTLTVSS
VL: DIQMTQSPSSLSASVGDRVTITCRASENIYSNLVWYQQKPGKAPQLLVYGARNLQSGVPSRFSGSGSGTQFSLTISSLQPEDFATYYCQHFYETPLTFGTGTKLEIKR
notes: Humanized
B11: 900792-huH3L1 (antibody, human IgG1, kappa, L234A L235A, V domains shown)
VH: QVQLQQSGAEVKKPGASVKVSCKASGYAFTNYLIEWVRQAPGQGLEWMGVINPESGDTYYSQKFQGRVTMTADKSTSTAYMELSSLRSEDSAVYFCAKESLTGSSYDYWGQGTTLTVSS
VL: DIQMTQSPSSLSASVGDRVTITCRASENIYSNLVWYQQKPGKAPQLLVYGARNLADGVPSRFSGSGSGTQFSLTISSLQPEDFATYYCQHFYETPLTFGTGTKLEIKR
notes: Humanized

Experiments:
[1] = target: T2, Lysozyme solution from chicken egg (chicken, UniProt P00698 19-147); experiment: SPR, protein coupled to CM5
T2 construct: Amine coupled to a CM5 chip

[2] = target: T1, Trypsin inhibitor type 1-S from Glycine …; experiment: SPR, protein coupled to CM5
[3] = target: T3, human TSLP with His tag (ACRO, TSP-H52Ha) (human, UniProt Q969D9 29-159); experiment: SPR, His-TSLP captured on anti-His CM5, antibody analyte
T3 construct: Bought protein; also called human TSLP antigens; Human TSLP (Acro, #TSP-H52Ha); not shown: His tag

[4] = target: T4, monkey TSLP antigen (R127A, R130S) Protein, His Tag (ACRO, Cat#: TSP-C52H4) (monkey, UniProt A0A7N9CAT7 29-159); experiment: as above
T4 construct: Bought protein

[5] = target: Human TSLP (form and source not stated) (human, UniProt Q969D9 29-159, limits assumed); experiment: cell-based or functional assay

T2 sequence (P00698 19-147 limits assumed): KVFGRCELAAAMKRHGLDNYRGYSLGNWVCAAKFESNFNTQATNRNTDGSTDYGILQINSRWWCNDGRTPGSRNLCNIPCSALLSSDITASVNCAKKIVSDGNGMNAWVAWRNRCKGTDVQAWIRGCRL
T4 sequence (A0A7N9CAT7 entry or part of it R127A R130S R127A R130S limits assumed, form in doubt): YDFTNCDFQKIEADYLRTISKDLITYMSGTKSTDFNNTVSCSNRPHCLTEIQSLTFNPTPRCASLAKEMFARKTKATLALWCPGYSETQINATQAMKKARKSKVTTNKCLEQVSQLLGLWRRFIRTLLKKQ

Binder	binding response (RU) [1]	binding response (RU) [2]	Kd [3]	koff [3]	kon [3]	Kd [4]	koff [4]	kon [4]	TARC in PBMC supernatant (ELISA) [5]
B1	2.1 RU	7.2 RU	0.223 nM	0.000157 s⁻¹	703000 M⁻¹ s⁻¹	4.58 nM	0.0159 s⁻¹	3.47e+06 M⁻¹ s⁻¹	
B2	1.4 RU	6.8 RU	0.172 nM	0.000126 s⁻¹	733000 M⁻¹ s⁻¹	5.06 nM	0.0165 s⁻¹	3.27e+06 M⁻¹ s⁻¹	~10 times better than Tezepelumab
B3	0.8 RU	6.9 RU	0.141 nM	0.00011 s⁻¹	782000 M⁻¹ s⁻¹	3.82 nM	0.0122 s⁻¹	3.19e+06 M⁻¹ s⁻¹	~10 times better than Tezepelumab
B4	5.9 RU	6.8 RU	0.172 nM	0.000126 s⁻¹	733000 M⁻¹ s⁻¹	5.88 nM	0.0189 s⁻¹	3.22e+06 M⁻¹ s⁻¹	~10 times better than Tezepelumab
B5	1 RU	5.9 RU	0.0964 nM	7.02e-05 s⁻¹	728000 M⁻¹ s⁻¹	7.99 nM	0.00321 s⁻¹	402000 M⁻¹ s⁻¹	~10 times better than Tezepelumab
B6	1.9 RU	8.7 RU	0.189 nM	0.000143 s⁻¹	755000 M⁻¹ s⁻¹	6.01 nM	0.087 s⁻¹	1.45e+07 M⁻¹ s⁻¹	~10 times better than Tezepelumab
B7	4 RU	9.6 RU	0.117 nM	8.15e-05 s⁻¹	694000 M⁻¹ s⁻¹	4.17 nM	0.00873 s⁻¹	2.09e+06 M⁻¹ s⁻¹	~10 times better than Tezepelumab
B8	1.5 RU	8.1 RU	0.131 nM	0.000108 s⁻¹	822000 M⁻¹ s⁻¹	5.05 nM	0.0327 s⁻¹	6.47e+06 M⁻¹ s⁻¹	~10 times better than Tezepelumab
B9	1.8 RU	5.7 RU	0.126 nM	9.45e-05 s⁻¹	748000 M⁻¹ s⁻¹	8.16 nM	0.00339 s⁻¹	416000 M⁻¹ s⁻¹	~10 times better than Tezepelumab
B10	2 RU	6 RU	0.176 nM	0.000126 s⁻¹	713000 M⁻¹ s⁻¹	8.23 nM	0.00274 s⁻¹	333000 M⁻¹ s⁻¹	~10 times better than Tezepelumab
B11	0.9 RU	5.6 RU	0.175 nM	0.000129 s⁻¹	737000 M⁻¹ s⁻¹	6.22 nM	0.0362 s⁻¹	5.82e+06 M⁻¹ s⁻¹	~10 times better than Tezepelumab

From EP4814011A1 (Shanghai Huaota Biopharmaceutical Co., Ltd., dated 2026)
